In patent publication US20240400689A1 (ANTENGENE BIOLOGICS, published 2024):
Residue numbers refer to the chain shown, from its start.

T1: human CD276 protein (human, UniProt Q5ZPR3 29-534)
T1 construct: whole, on cells; for SKOV3 and the other cancer lines the protein is the cells' own; also called B7-H3; B7H3
T1 sequence (looked up): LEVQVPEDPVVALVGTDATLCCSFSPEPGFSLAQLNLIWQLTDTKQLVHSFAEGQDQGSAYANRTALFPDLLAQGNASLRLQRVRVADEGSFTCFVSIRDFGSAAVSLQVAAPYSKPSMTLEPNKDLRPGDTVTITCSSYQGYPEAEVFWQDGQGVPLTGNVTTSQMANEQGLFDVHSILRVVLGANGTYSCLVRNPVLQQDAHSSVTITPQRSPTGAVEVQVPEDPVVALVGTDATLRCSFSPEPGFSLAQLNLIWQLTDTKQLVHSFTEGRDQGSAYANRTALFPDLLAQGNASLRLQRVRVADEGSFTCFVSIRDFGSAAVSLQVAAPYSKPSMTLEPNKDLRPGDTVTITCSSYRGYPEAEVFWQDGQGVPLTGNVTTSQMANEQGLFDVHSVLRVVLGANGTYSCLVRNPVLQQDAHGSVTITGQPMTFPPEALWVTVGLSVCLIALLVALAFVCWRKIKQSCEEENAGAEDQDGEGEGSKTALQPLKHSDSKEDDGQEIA

T2: mouse CD276 protein (mouse, UniProt Q8VE98 29-316)
T2 construct: whole, on cells; also called mCD276; CHO-S-mCD276
T2 sequence (looked up): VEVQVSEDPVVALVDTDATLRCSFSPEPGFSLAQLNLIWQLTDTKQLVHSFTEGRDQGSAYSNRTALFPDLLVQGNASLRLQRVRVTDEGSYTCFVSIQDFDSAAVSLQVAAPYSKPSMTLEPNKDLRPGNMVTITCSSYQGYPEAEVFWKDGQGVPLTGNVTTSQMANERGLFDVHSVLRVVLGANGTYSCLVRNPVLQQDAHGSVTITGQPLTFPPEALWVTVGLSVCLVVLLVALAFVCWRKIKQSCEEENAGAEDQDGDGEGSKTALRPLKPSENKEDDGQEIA

B1: 3-F2-E7-F9 (antibody, V domains shown)
VH: QVQLQQSGPELVRPGVSVKISCKGSGYTFTDYTMHWVKESHAKSLEWIGVISTYYGNTNYNQKFKGKATLTVDKSSSTAYMELAGLTSEDSAIYYCARASYGSGYGPYYWYFDVWGAGTTVTVSS
VL: DIQMTQSPASLFASVGETVTITCRASEKIYSYLAWYFQKQGKSPQFLVYNANALAEGVPSRFSGSGSGTQFSLKINSLQPEDFGTYYCQHHYGTPVTFGAGSKLELK
notes: mouse monoclonal antibody (hybridoma)
B2: 20-A2-D10-G8 (antibody, V domains shown)
VH: B1 VH with K43Q, K63N
VL: B1 VL with N76K, T94S
notes: as for B1
B3: 24-C10-F9-G7 (antibody, V domains shown)
VH: B1 VH with Q1E, Q6E, Y32H, K43Q, K63N
VL: B1 VL
notes: as for B1
B4: 18-F9-D8-G7 (antibody, V domains shown)
VH: EVQLQQSGPELVRPGVSVKISCKGSGYTFTDYAMHWVKQSHAQSLEWIGIINTYSGDTNYNQKFKGKATMTVDKSSSTAYMGLARLTSEDSAIFYCARGGGNYPYWYFDVWGAGTTVTVSS
VL: ENVLTQSPAIMSASPGEKVTMTCRASSSVSSSYLHWYQQKSGDSPKLWIYSTSNLASGVPARFSGSGSGTSYSLTISSVEAEDAATYYCQQFSVYPLTFGAGTKLEIK
notes: as for B1
B5: 6-D8-E7-A11 (antibody, V domains shown)
VH: QVHLQQPGAELVKPGASVKLSCKASGYTFTNYWMHWVKRRPGQGLEWIGMIHPNSGTTSFNEKFKSKATLTVDKSSSTAYMQLSSLTSEDSAVYYCAGYYGSSFSWFTYWGQGTLVTVSA
VL: QAVVTQESALTTSPGGTVILTCRSSTGAVTTSNFANWVQEKPDHLFTGLIGGTSNRAPGVPVRFSGSLIGDKAALTITGAQTEDDAMYFCALWYSTHYVFGGGTKVTVL
notes: as for B1
B6: 2-A7-B10-A3 (antibody, V domains shown)
VH: QVQLQQSGAELVRPGVSVKISCKGSGYTFTDYAMHWVKQSHAKSLEWIGVINTNYVNTSYNQKFKGKATMTVDKSSSTAFMELARLTSEDSAIYYCARGGKYGNYVFFFAYWGQGTLVTVSA
VL: DIQMTQTTSSLSASLGDRVTISCRASQDISNYLNWYQQKPDGTVKLLIYYTSRLHSGVPSRFSGSGSGTDYSLTISNLEQEDIATYFCQQGNTLPYTFGGGTKLEIK
notes: as for B1
B7: 5-D1-G6-D9 (antibody, V domains shown)
VH: EVQLQESGAELVKPGASVKLSCKTSGLTFSTNYISWLKQKPGQSLEWIAWIYGGNGGTSYNQRFTGKAQLTVDTSSSTAYMQFSSLTTEDSAIYYCTSHDYYGGPMDYWGQGTSVTVSS
VL: B6 VL with Y50F, G64A, G91T, Y96W
notes: as for B1
B8: 27-E7-D8-C7 (antibody, V domains shown)
VH: EVQLQESGPELVRPGVSVKISCKGSGYTFTDYAMHWVKQSHAKSLEWIGVINTYSDNTNYNRKFKGKATMTVDKSSSTAYMELARLTSEDSAIYYCARGLLLRSQLGVYFDYWGQGTTLTVSS
VL: QIVLSQSPAILSASPGEKVTMTCRASSSVSYMHWYQQKPGSSPKPWIYATSNLASGVPARFSGSGSGTSYSLTISRVEAEDAATYYCQQWSSNPWTFGGGTKLEIK
notes: as for B1

Biological target: T1, human CD276 protein
Assay: FACS on CHO-S-hCD276 cells
Experimental: (§1) Screening & Expansion—The subcloning plates were screened by protein or cell-based Elisa, and the subclones with good binding ability were expanded to 24-wells for confirmation tests. The specificity and cross-reactivity of these subclones were confirmed with FACS analysis. Briefly, parental CHO-S cells, CHO-S-hCD276, CHO-S cell line stably over-expressing Macaca fascicularis CD276, CHO-K1 S, cell line stably over-expressing mouse CD276 were incubated with antibodies produced by each subclone respectively. Fluorescent dye-conjugated secondary antibody was used to detect the binding of the primary antibody with the cells. Median fluorescence intensity was measured by FACS analysis.

Compared with B1, B2 is higher in “FACS MFI” value: 52300 for the first, 77100 for the second.

Compared with B3, B4 is higher in “FACS MFI” value: 85100 for the first, 127000 for the second.

Compared with B5, B6 is higher in “FACS MFI” value: 37900 for the first, 58900 for the second.

Compared with B7, B8 is higher in “FACS MFI” value: 45300 for the first, 94700 for the second.

Biological target: T2, mouse CD276 protein
Assay: FACS on CHO-S-mCD276 cells
Experimental: as §1

Going from B1 to B2, the “FACS MFI” value rises from 1140 to 1260.

First: B3
Second: B4
The “FACS MFI” value of the first is lower: 1180 for the first, 20600 for the second.

First: B5
Second: B6
The “FACS MFI” value of the first is higher: 92600 for the first, 2040 for the second.

Compared with B7, B8 is higher in “FACS MFI” value: 1530 for the first, 1590 for the second.

Biological target: T3, Macaca fascicularis CD276 (Macaca fascicularis)
T3 construct: whole, on cells; also called cynomolgus monkey CD276; cynoCD276
Assay: FACS on CHO-S-cynoCD276 cells
Experimental: as §1

Going from B1 to B2, the “FACS MFI” value falls from 35700 to 9020.

First: B3
Second: B4
The “FACS MFI” value of the first is lower: 15200 for the first, 83500 for the second.

First: B5
Second: B6
The “FACS MFI” value of the first is higher: 101000 for the first, 56000 for the second.

Going from B7 to B8, the “FACS MFI” value rises from 62200 to 87900.
